Experiments:
recombinant human TSLP [1] = molecular target: T1, recombinant human TSLP (human, UniProt Q969D9 29-159); experiment: cell-based or functional assay
[2] = molecular target: IL-4R on human donor PBMC (B-cells) (human, UniProt P24394 26-825); experiment: cell-based or functional assay
recombinant human TSLP [3] = molecular target: T1, recombinant human TSLP; experiment: SPR; column 'SPR (Biophysical binding): TSLP (pM)'
Experimental: (§1) SPR studies were carried out on a Biacore 3000 instrument with a CM5 chip at 25° C. The running buffer comprised 25 mM Hepes, pH 7.5, 150 mM NaCl, 0.5 mg/ml BSA, 0.005% P20. Antibodies were captured via protein A using approximately a 1/50 dilution of each antibody in the running buffer and a 2-minute contact time at a 10 μl/min flow rate. Protein A was immobilized on a CM5 chip via standard amine coupling chemistry in 10 mM acetate pH 4.5. Approximately 800 RU of each antibody was captured. The surfaces were regenerated via a 10 mM glycine pH 1.5 between cycles. Between assays the chip was regenerated with a 2-minute pulse of 100 mM Phosphoric acid. Prior to setting up multicycle kinetic analysis analyte concentration was determined spectrophotometrically using an extinction coefficient of 72,880 M⁻¹ cm⁻¹ for IL4R and 18450 M⁻¹ cm⁻¹ for the TSLP proteins respectively. Analyte samples were prepared by diluting stocks into running buffer to a final concentration of 500 nM for the IL-4R and 25 nM for TSLP followed by serially diluting with a 2-fold series with an association time of 2.5 minutes at a 50 μl/min flow rate. Dissociation data was collected for a period of 1600 seconds. Raw data was analyzed using the Scrubber2 (Biologic Software, AU) program using a double referencing procedure where compound signal is corrected to a blank surface and a buffer injection over the captured antibody surface. Kinetic data was analyzed by fitting to a simple 1:1 binding model. […] The candidates are further described in Table 3.

recombinant human TSLP [4] = molecular target: T1, recombinant human TSLP; experiment: SPR (Biacore 3000, CM5 chip, 25 C): complex captured via protein A, TSLP as analyte, 1:1 fit; column 'TSLP binding(pM)'
Experimental: as §1

B1: Candidate-26: Light chain C-terminal TRAP: Dupilumab-YTE_Linker-GS4_TSLP TRAP 2 [2 x TRAP 2] (bispecific antibody, human IgG4 S228P, kappa)
heavy: EVQLVESGGGLEQPGGSLRLSCAGSGFTFRDYAMTWVRQAPGKGLEWVSSISGSGGNTYYADSVKGRFTISRDNSKNTLYLQMNSLRAEDTAVYYCAKDRLSITIRPRYYGLDVWGQGTTVTVSSASTKGPSVFPLAPCSRSTSESTAALGCLVKDYFPEPVTVSWNSGALTSGVHTFPAVLQSSGLYSLSSVVTVPSSSLGTKTYTCNVDHKPSNTKVDKRVESKYGPPCPPCPAPEFLGGPSVFLFPPKPKDTLYITREPEVTCVVVDVSQEDPEVQFNWYVDGVEVHNAKTKPREEQFNSTYRVVSVLTVLHQDWLNGKEYKCKVSNKGLPSSIEKTISKAKGQPREPQVYTLPPSQEEMTKNQVSLTCLVKGFYPSDIAVEWESNGQPENNYKTTPPVLDSDGSFFLYSRLTVDKSRWQEGNVFSCSVMHEALHNHYTQKSLSLSLG
light: DIVMTQSPLSLPVTPGEPASISCRSSQSLLYSIGYNYLDWYLQKSGQSPQLLIYLGSNRASGVPDRFSGSGSGTDFTLKISRVEAEDVGFYYCMQALQTPYTFGQGTKLEIKRTVAAPSVFIFPPSDEQLKSGTASVVCLLNNFYPREAKVQWKVDNALQSGNSQESVTEQDSKDSTYSLSSTLTLSKADYEKHKVYACEVTHQGLSSPVTKSFNRGECGGGGSGGGGSGGGGSGGGGSESGYAQNGDLEDAELDDYSFSCYSQLEVNGSQHSLTCAFEDPDVNITNLEFEICGALVEVKCLNFRKLQEIYFIETKKFLLIGKSNICVKVGEKSLTCKKIDLTTIVKPEAPFDLSVVYREGANDFVVTFNTSHLQKKYVKVLMHDVAYRQEKDENKWTHVNLSSTKLTLLQRKLQPAAMYEIKVRSIPDHYFKGFWSEWSPSYYFRTPEINNSSGEMDGGSGGSGGSGGSGGSGGSGGSGGSGGSGGSGGSGGSGGSGGSGGSGGSGGSGGSGGSGGSGAAEGVQIQIIYFNLETVQVTWNASKYSRTNLTFHYRFNGDEAYDQCTNYLLQEGHTSGCLLDAEQRDDILYFSIRNGTHPVFTASRWMVYYLKPSSPKHVRFSWHQDAVTVTCSDLSYGDLLYEVQYRSPFDTEWQSKQENTCNVTIEGLDAEKCYSFWVRVKAMEDVYGPDTYPSDWSEVTCWQRGEIRDACAETPTPPKPKLSK
notes: The chains here are built from the component entries
- IC50, inhibition of TSLP responses (TARC secretion) in human PBMCs (recombinant human TSLP [1]): 7.8 nM
- IC50, CD23 upregulation on B cells of human PBMC in response to IL-4 (column 'Biological Assays: IL-4R (nM)') [2]: > 200 nM
- Kd (recombinant human TSLP [3]): 0.0083 nM
- Kd (recombinant human TSLP [4]): 0.0083 nM

B2: Candidate-42: Heavy and Light chain C-terminal TRAP: Dupilumab-YTE_Linker-GS4_TSLP TRAP 2 [4 x TRAP 2] (bispecific antibody, human IgG4 S228P, kappa)
heavy: EVQLVESGGGLEQPGGSLRLSCAGSGFTFRDYAMTWVRQAPGKGLEWVSSISGSGGNTYYADSVKGRFTISRDNSKNTLYLQMNSLRAEDTAVYYCAKDRLSITIRPRYYGLDVWGQGTTVTVSSASTKGPSVFPLAPCSRSTSESTAALGCLVKDYFPEPVTVSWNSGALTSGVHTFPAVLQSSGLYSLSSVVTVPSSSLGTKTYTCNVDHKPSNTKVDKRVESKYGPPCPPCPAPEFLGGPSVFLFPPKPKDTLYITREPEVTCVVVDVSQEDPEVQFNWYVDGVEVHNAKTKPREEQFNSTYRVVSVLTVLHQDWLNGKEYKCKVSNKGLPSSIEKTISKAKGQPREPQVYTLPPSQEEMTKNQVSLTCLVKGFYPSDIAVEWESNGQPENNYKTTPPVLDSDGSFFLYSRLTVDKSRWQEGNVFSCSVMHEALHNHYTQKSLSLSLGGGGGSGGGGSGGGGSGGGGSESGYAQNGDLEDAELDDYSFSCYSQLEVNGSQHSLTCAFEDPDVNITNLEFEICGALVEVKCLNFRKLQEIYFIETKKFLLIGKSNICVKVGEKSLTCKKIDLTTIVKPEAPFDLSVVYREGANDFVVTFNTSHLQKKYVKVLMHDVAYRQEKDENKWTHVNLSSTKLTLLQRKLQPAAMYEIKVRSIPDHYFKGFWSEWSPSYYFRTPEINNSSGEMDGGSGGSGGSGGSGGSGGSGGSGGSGGSGGSGGSGGSGGSGGSGGSGGSGGSGGSGGSGGSGAAEGVQIQIIYFNLETVQVTWNASKYSRTNLTFHYRFNGDEAYDQCTNYLLQEGHTSGCLLDAEQRDDILYFSIRNGTHPVFTASRWMVYYLKPSSPKHVRFSWHQDAVTVTCSDLSYGDLLYEVQYRSPFDTEWQSKQENTCNVTIEGLDAEKCYSFWVRVKAMEDVYGPDTYPSDWSEVTCWQRGEIRDACAETPTPPKPKLSK
light: B1 light
notes: as for B1
- IC50, inhibition of TSLP responses (TARC secretion) in human PBMCs (recombinant human TSLP [1]): 2.37 nM
- IC50, CD23 upregulation on B cells of human PBMC in response to IL-4 (column 'Biological Assays: IL-4R (nM)') [2]: > 200 nM
- Kd (recombinant human TSLP [3]): 0.0162 nM
- Kd (recombinant human TSLP [4]): 0.0162 nM
